Data published in article PMC4324353.

Target: latrunculin B bound actin (A. castellani actin monomer) (A. castellani)
Assay: fluorescence polarisation

Spir second WH2 domain (SB) (domain or fragment)
Kd: 90 nM
